These are literature values, as cited in article PMC8146069.

In one data set the target is His57 (UniProt position 406, VLTAAHCLLYP). The experiment in a line: kinetics.
The subject of another data set is Nterm16. The experiment in a line: kinetics.
The target of data set [1] is r-hirudin (recombinant hirudin, type 1 or type 2) (UniProt P01050). The experiment in a line: pH profile of hirudin binding to thrombin (the measured quantity and the assay are not stated in this article).
The mark [2] stands for this setting: 25 °C (as for the free enzyme; inferred from the preceding sentence), µ = 0.1 (inferred from the preceding sentence), thrombin with small peptide substrate bound.
Setting [3] is: 25.0 ± 0.1 °C, thrombin reacting with NPMP.
The mark [4] stands for this setting: 25.0 ± 0.1 °C, thrombin reacting with PPACK (2.2 × 10^−9 M, [I] << Ki).
Setting [5] is: 25.0 ± 0.1 °C, thrombin reacting with paraoxon.

r-hirudin (recombinant hirudin, type 1 or type 2), sequence (P01050 whole entry): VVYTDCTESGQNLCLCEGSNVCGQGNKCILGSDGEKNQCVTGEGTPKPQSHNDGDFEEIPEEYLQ

With alpha-thrombin (Homo sapiens), the pKa with His57 (setting [2]) is on record as 6.16 ± 0.25; with His57 (25 °C, µ = 0.1, free thrombin), 6.7 ± 0.3; with His57 (setting [3]) it was 8.0 ± 0.1; with His57 (setting [4]) it was 7.3 ± 0.2; with His57 (setting [5]), 7.8 ± 0.2; with His57 (thrombin binding r-hirudin), 7.1. For the same substance, the pKa is given as 8.95 ± 0.41 in the data set on Nterm16 (setting [2]); 8.4 ± 0.4 with Nterm16 (25 °C, µ = 0.1, free thrombin); 8.6 ± 0.2 in the data set on Nterm16 (setting [3]); 8.8 ± 0.3 in the data set with Nterm16 (setting [4]); 9.3 ± 0.3 in the data set with Nterm16 (setting [5]).

For alpha-thrombin, the pKa, His57 of thrombin in data set [1] is 7.1 pH units.
